# Source: the supplement of paper PMC6755084
# B1: F1*; the commonest letter at each place (parent)
# chain: GAGACCGCAACTGAAAAGTTGTTATCACTTGTCGTAAGACACTTTGGATGGGTTGAAGTTCTGCACGTAGAAGCAAAAGGC
# Variants of: B1
# Experiment: fraction ligated after 30 min (ligated reads / total reads); higher = more ligase activity
# Conditions: with F1*sub RNA substrate (template-directed ligation), 42 °C
# Outline: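 Oligo-pool templates of ligase ribozyme variants were PCR-amplified, T7-transcribed and gel-purified. Ligated and unligated bands were gel-separated, reverse transcribed with barcoded primers, and MiSeq-sequenced; core bases were filtered at quality ≥20. Fraction ligated per variant was ligated reads over total reads.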
row,Variant,fraction ligated
1,T35G C42G,0.857
2,T35G C42A,0.846
3,T35G A37T,0.846
4,T35G A37G,0.847
5,T35G A37C,0.868
6,T35A A56G,0.799
7,T35A A56T,0.82
8,T35A A56C,0.802
9,T35A C40A,0.811
10,T35A C40G,0.834
11,T35A C40T,0.834
12,A36T A37T,0.851
13,A36T A37C,0.838
14,A36T A37G,0.842
15,A36C G55T,0.797
16,A36C G55A,0.827
17,A36C G55C,0.787
18,A36C C42T,0.889
19,A36C C42G,0.839
20,A36C C42A,0.852
21,A36T,0.843
22,A36G,0.862
23,A36C,0.833
24,T35A T49G,0.817

row,Variant,fraction ligated
1,T35A T49C,0.768
2,T35A T49A,0.763
3,A36C A48C,0.778
4,A36C A48G,0.784
5,A36C A48T,0.8
6,G34T C40G,0.811
7,G34T C40A,0.802
8,G34T C40T,0.809
9,T35C C40G,0.817
10,T35C C40A,0.84
11,T35C C40T,0.862
12,A36C G38A,0.846
13,A36C G38T,0.838
14,A36C G38C,0.838
15,A36G A57T,0.878
16,A36G A57C,0.863
17,A36G A57G,0.88
18,T35C G47A,0.811
19,T35C G47T,0.36
20,T35C G47C,0.213
21,A36G A48G,0.798
22,A36G A48T,0.0834
23,A36G A48C,0.773
24,T35G A56C,0.802

row,Variant,fraction ligated
1,T35G A56T,0.802
2,T35G A56G,0.791
3,T35G G47C,0.222
4,T35G G47A,0.78
5,T35G G47T,0.391
6,A36G A39C,0.791
7,A36G A39T,0.815
8,A36G A39G,0.862
9,A36G A56C,0.773
10,A36G A56G,0.814
11,A36G A56T,0.873
12,T35G A39C,0.816
13,T35G A39G,0.799
14,T35G A39T,0.836
15,G34T T45G,0.385
16,G34T T45A,0.794
17,G34T T45C,0.757
18,A36C T45A,0.771
19,A36C T45C,0.753
20,A36C T45G,0.362
21,A36G G46C,0.803
22,A36G G46T,0.825
23,A36G G46A,0.836
24,A36C A56G,0.794

row,Variant,fraction ligated
1,A36C A56C,0.804
2,A36C A56T,0.804
3,T35G A36T,0.851
4,T35G A36G,0.845
5,T35G A36C,0.824
6,T35A A37G,0.844
7,T35A A37C,0.872
8,T35A A37T,0.86
9,A36G C42A,0.836
10,A36G C42G,0.844
11,A36G C42T,0.849
12,T35C A56C,0.759
13,T35C A56G,0.782
14,T35C A56T,0.796
15,T35G T44C,0.854
16,T35G T44A,0.843
17,T35G T44G,0.851
18,G34T G50C,0.396
19,G34T G50A,0.606
20,G34T G50T,0.767
21,T35G A48C,0.755
22,T35G A48T,0.789
23,T35G A48G,0.79
24,T35G T49C,0.727

row,Variant,fraction ligated
1,T35G T49A,0.748
2,T35G T49G,0.778
3,G34T A57C,0.806
4,G34T A57G,0.84
5,G34T A57T,0.81
6,A36C G47T,0.356
7,A36C G47A,0.81
8,A36C G47C,0.224
9,T35C G50A,0.608
10,T35C G50C,0.437
11,T35C G50T,0.753
12,A36C T49A,0.767
13,A36C T49C,0.712
14,A36C T49G,0.798
15,A36C T44G,0.827
16,A36C T44A,0.827
17,A36C T44C,0.815
18,G34T G47T,0.363
19,G34T G47C,0.342
20,G34T G47A,0.764
21,T35C A39T,0.825
22,T35C A39G,0.833
23,T35C A39C,0.824
24,T35C C42G,0.851

row,Variant,fraction ligated
1,T35C C42A,0.841
2,T35C C42T,0.856
3,T35A C42G,0.847
4,T35A C42T,0.85
5,T35A C42A,0.845
6,T35A A36T,0.85
7,T35A A36C,0.865
8,T35A A36G,0.857
9,G34T G46T,0.763
10,G34T G46C,0.778
11,G34T G46A,0.823
12,T35G T45A,0.772
13,T35G T45C,0.747
14,T35G T45G,0.388
15,A36C G50C,0.454
16,A36C G50T,0.746
17,A36C G50A,0.619
18,T35G,0.839
19,T35C,0.839
20,T35A,0.836
21,T35C A36T,0.839
22,T35C A36G,0.847
23,T35C A36C,0.8
24,A36G G38C,0.846

row,Variant,fraction ligated
1,A36G G38T,0.806
2,A36G G38A,0.828
3,T35G C40G,0.837
4,T35G C40A,0.838
5,T35G C40T,0.851
6,T35C A48G,0.805
7,T35C A48C,0.766
8,T35C A48T,0.792
9,A36T A39C,0.821
10,A36T A39T,0.836
11,A36T A39G,0.842
12,T35G G38T,0.845
13,T35G G38A,0.847
14,T35G G38C,0.865
15,G34T A48C,0.756
16,G34T A48G,0.77
17,G34T A48T,0.801
18,T35C G38C,0.815
19,T35C G38T,0.821
20,T35C G38A,0.856
21,T35G G46C,0.803
22,T35G G46T,0.784
23,T35G G46A,0.809
